From patent US20140322220A1 (Bayer, published 2014)
Residue numbers refer to the chain shown, from its start.

T1: hFGFR1β-Fc (IIIc) (human, UniProt P11362-14 22-285, limits assumed, biotinylated with biotin-LC-NHS)
T1 construct: Bought, R&D Systems 661-FR
T1 sequence (looked up): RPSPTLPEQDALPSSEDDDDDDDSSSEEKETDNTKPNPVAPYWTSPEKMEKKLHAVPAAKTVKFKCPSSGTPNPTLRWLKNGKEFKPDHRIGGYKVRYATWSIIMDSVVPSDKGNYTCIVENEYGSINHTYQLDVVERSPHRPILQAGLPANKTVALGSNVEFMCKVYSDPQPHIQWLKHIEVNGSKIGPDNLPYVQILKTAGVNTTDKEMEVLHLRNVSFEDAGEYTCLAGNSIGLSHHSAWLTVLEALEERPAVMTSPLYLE

T2: hFGFR3-Fc (IIIb) (human, UniProt P22607-2 23-377, biotinylated with biotin-LC-NHS)
T2 construct: Bought, R&D Systems 1264-FR
T2 sequence (looked up): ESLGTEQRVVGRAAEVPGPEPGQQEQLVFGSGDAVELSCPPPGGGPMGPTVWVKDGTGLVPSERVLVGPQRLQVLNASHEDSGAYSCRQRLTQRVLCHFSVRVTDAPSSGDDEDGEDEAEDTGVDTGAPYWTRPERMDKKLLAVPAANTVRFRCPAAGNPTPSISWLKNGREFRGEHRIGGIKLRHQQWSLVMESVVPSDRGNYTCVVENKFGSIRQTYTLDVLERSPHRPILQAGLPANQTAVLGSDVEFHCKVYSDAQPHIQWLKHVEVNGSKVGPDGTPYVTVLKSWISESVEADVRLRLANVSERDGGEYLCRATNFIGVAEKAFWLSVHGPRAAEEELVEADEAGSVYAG

T3: hFGFR4-Fc (human, UniProt P22455 22-369, biotinylated with biotin-LC-NHS)
T3 construct: Bought, R&D Systems, printed Cat. No. 685-MF
T3 sequence (looked up): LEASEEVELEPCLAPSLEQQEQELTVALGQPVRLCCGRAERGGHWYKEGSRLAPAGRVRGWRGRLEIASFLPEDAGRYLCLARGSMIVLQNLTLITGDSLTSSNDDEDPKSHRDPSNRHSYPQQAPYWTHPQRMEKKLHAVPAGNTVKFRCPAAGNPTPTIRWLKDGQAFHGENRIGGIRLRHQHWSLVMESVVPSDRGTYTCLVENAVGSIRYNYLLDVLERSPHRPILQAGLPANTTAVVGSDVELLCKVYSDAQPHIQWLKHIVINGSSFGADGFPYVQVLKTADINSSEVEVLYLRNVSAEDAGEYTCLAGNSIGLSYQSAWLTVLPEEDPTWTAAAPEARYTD

T4: hFGFR2β-Fc (IIIb) (human, UniProt P21802 22-377, biotinylated with biotin-LC-NHS)
T4 construct: also called FGFR2-2β Fc (IIIb)
T4 chain: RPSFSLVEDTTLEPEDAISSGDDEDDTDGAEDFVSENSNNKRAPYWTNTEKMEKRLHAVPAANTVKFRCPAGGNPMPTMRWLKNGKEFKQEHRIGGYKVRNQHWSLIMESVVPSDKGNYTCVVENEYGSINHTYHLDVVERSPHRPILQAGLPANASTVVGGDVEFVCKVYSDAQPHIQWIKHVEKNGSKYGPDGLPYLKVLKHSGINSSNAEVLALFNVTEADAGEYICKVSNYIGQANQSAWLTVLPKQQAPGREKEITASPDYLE

T5: hFGFR2α-Fc (IIIb) (human, UniProt P21802 22-377, biotinylated with biotin-LC-NHS)
T5 construct: Bought, R&D Systems 663-FR, soluble Fc fusion
T5 chain: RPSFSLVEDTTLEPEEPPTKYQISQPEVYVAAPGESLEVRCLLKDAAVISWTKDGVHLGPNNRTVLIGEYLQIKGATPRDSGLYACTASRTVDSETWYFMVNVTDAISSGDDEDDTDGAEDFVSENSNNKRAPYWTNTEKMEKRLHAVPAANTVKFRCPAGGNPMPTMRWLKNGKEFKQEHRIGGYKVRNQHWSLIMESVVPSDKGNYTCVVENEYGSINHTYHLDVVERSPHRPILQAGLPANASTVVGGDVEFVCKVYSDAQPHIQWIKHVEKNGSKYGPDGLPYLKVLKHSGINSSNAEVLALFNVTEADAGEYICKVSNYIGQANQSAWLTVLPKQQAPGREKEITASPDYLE

B1: M054-A05 (soluble Fab) (Fab, V domains shown)
VH: EVQLLESGGGLVQPGGSLRLSCAASGFTFSNYGMYWVRQAPGKGLEWVAVISYDGTNKYYVDSVKGRFTISRDNSKNTLYLQMNSLRAEDTAVYYCAKDLPKWGGFDSWGQGTLVTVSS
VL: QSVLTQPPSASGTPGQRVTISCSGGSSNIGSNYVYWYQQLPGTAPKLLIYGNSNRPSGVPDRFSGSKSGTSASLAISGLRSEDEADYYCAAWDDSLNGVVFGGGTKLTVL
notes: Soluble Fab from E. coli, purified through its His-tag
B2: M048-D01 (soluble Fab) (Fab, V domains shown)
VH: EVQLLESGGGLVQPGGSLRLSCAASGFTFSSYAMSWVRQAPGKGLEWVSAISGSGTSTYYADSVKGRFTISRDNSKNTLYLQMNSLRAEDTAVYYCARVRYNWNHGDWFDPWGQGTLVTVSS
VL: QSVLTQPPSASGTPGQRVTISCSGSSSNIGNNYVSWYQQLPGTAPKLLIYENYNRPAGVPDRFSGSKSGTSASLAISGLRSEDEADYYCSSWDDSLNYWVFGGGTKLTVL
notes: as for B1
B3: M017-B02 (soluble Fab) (Fab, V domains shown)
VH: EVQLLESGGGLVQPGGSLRLSCAASGFTFRTSGMHWVRQAPGKGLEWVAVISYDGSNKYYADSVKGRFTISRDNSKNTLYLQMNSLRAEDTAVYYCARESPGYDFEYWGQGTLVTVSS
VL: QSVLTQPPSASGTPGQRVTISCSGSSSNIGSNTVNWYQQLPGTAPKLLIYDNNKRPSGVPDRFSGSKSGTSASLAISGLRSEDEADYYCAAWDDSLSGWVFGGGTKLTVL
notes: as for B1
B4: M021-H02 (soluble Fab) (Fab, V domains shown)
VH: EVQLLESGGGLVQPGGSLRLSCAASGFTFSNYGIHWVRQAPGKGLEWVAVISYDGSNKYYADSVKGRFTISRDNSKNTLYLQMNSLRAEDTAMYYCARDSSSAEDYWGQGTLVTVSS
VL: QSVLTQPPSASGTPGQRVTISCSGSSSNTGSNTVNWYQQLPGTAPKLLIYRNNQRPSGVPDRFSGSKSGTSASLAISGLRSEDEADYYCETWDSNTRGVVFGGGTKLTVL
notes: as for B1
B5: TPP-1406 (antibody, human IgG1, lambda, V domains shown)
VH: B3 VH with R30S, T31H, S100Q, G102L
VL: AQSVLTQPPSASGTPGQRVTISCSGSSSNIGDNGVNWYQQLPGTAPKLLIYGASERPSGVPDRFSGSKSGTSASLAISGLRSEDEADYYCAAWDDSLDGWTFGGGTKLTVLG
notes: Matured variant of M047-D08
B6: TPP-1411 (antibody, human IgG1, lambda, V domains shown)
VH: B3 VH with L18M, R30S, T31S, S100Q
VL: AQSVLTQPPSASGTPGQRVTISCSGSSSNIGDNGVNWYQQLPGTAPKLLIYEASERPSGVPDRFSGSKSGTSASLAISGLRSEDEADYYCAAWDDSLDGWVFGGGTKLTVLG
notes: Matured variant of M047-D08
B7: TPP-1409 (antibody, human IgG1, lambda, V domains shown)
VH: B3 VH with R30S
VL: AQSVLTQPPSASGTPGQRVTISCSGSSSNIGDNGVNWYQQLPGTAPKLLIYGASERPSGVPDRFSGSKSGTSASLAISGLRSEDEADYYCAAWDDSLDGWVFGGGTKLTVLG
notes: Matured variant of M047-D08
B8: TPP-1407 (antibody, human IgG1, lambda, V domains shown)
VH: B3 VH with R30S, T31H, S100Q, G102L
VL: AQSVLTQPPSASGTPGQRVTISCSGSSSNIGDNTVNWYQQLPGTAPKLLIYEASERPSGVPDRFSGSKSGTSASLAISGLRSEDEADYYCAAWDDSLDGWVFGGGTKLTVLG
notes: Matured variant of M047-D08
B9: TPP-1410 (antibody, human IgG1, lambda, V domains shown)
VH: B3 VH with R30S, T31H, S100A
VL: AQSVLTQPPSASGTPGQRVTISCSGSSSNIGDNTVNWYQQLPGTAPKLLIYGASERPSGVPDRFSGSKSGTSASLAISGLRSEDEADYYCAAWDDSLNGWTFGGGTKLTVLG
notes: Matured variant of M047-D08
B10: TPP-1412 (antibody, human IgG1, lambda, V domains shown)
VH: B3 VH with R30S, T31H, S100A, G102L
VL: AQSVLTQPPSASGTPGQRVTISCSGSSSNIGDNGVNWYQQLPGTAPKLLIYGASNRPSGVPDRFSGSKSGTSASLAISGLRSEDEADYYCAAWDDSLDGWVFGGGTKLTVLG
notes: Matured variant of M047-D08

Biological target: T1, hFGFR1β-Fc (IIIc)
Test: ELISA on coated biotinylated Fc fusion
Method: (§1) For the ELISA 96-well plates pre-coated with streptavidin (Pierce, 15500) were coated over night at 4° C. with 1 μg/ml biotinylated protein. Wells coated with biotinylated TRAIL-Fc served as a reference. The next day plates were washed 3 times with PBST, treated with blocking reagent, and washed again 3 times with PBST. 100 μl of purified Fabs (1 μg/ml) were added and incubated for 1 h at r.t. After washing 3 times with PBST, an anti-hIgG (Fab-specific) coupled to HRP (1:2500 diluted; Sigma; A 0293) was added and incubated for 1 h at Lt. Color reaction was developed by addition of 50 μl TMB (Invitrogen, 2023) and stopped after 5-15 min by adding 50 μl H₂SO₄ (Merck, 1120801000). Colorimetric reaction was recorded at […] in a plate reader (Tecan). Wells containing TRAIL-Fc were used as background values and the signal to background ratios were calculated as summarized in Table 4.

Row | Binder | binding result
1 | B1 | no binding
2 | B2 | no binding
3 | B3 | no binding
4 | B4 | no binding

Biological target: T2, hFGFR3-Fc (IIIb)
Test: ELISA on coated biotinylated Fc fusion
Method: as §1

Row | Binder | binding result
5 | B1 | no binding
6 | B2 | no binding
7 | B3 | no binding
8 | B4 | no binding

Biological target: T3, hFGFR4-Fc
Test: ELISA on coated biotinylated Fc fusion
Method: as §1

Row | Binder | binding result
9 | B1 | no binding
10 | B2 | no binding
11 | B3 | no binding
12 | B4 | no binding

Biological target: T6, recombinant human FGFR2 (Met 1-Glu 377) with C-terminal polyhistidine tag (human, UniProt P21802 22-377)
T6 construct: The range is that of the expressed DNA and begins at Met 1; also called His-tagged FGFR2; recombinant human FGFR2-IIIc molecule
Test: protein binding ELISA; against TPP-1415
From the text: (§2) Two different types of ELISA were used to determine the binding improvement of mutated variants: a) Peptide Binding ELISA: a synthetic peptide comprising the amino acid sequence of the epitope linked C-terminally to a biotinylated lysine […]-Ttds-Lys(Biotin) (peptide sequence derived from SEQ ID NO:63, synthesized by JPT Peptide Technology GmbH, Berlin, Germany), and b) Recombinant Protein Binding ELISA: recombinant human FGFR2 (DNA sequence of human FGFR2 (NP 000132.3) Met 1-Glu 377, fused with a polyhistidine tag at the C-terminus; #10824-1-1081-1, Sin θ Biological Inc., Beijing, China).
(§3) Briefly, in both ELISA formats MTP plates (384 well Maxisorp, Nunc) were coated with 20 μl, anti-human IgG Fc specific (#12136; sigma) at 2.2 μg/ml for 2.5 h at 37° C. in coating buffer (#121125 Candor Bioscience GmbH). […] Anti-FGFR2 variants were immobilized in concentrations of 0.035 μg/ml (peptide based assay) or 0.2 μg/ml (recombinant human FGFR2 protein based assay) in 10% Smart Block in PBST depending on the format and variants to be analyzed by incubation of 20 μl for one hour at 20-22° C. After one washing step using 50 μl PBST, 20 μl quadruplets of the antigen dilution series in 10% SmartBlock in PBST with a maximum concentration of 100 nM were added and incubated for 1 h at 20-22° C. and the washing step was repeated 3 times. For the detection of the biotinylated epitope peptide 20 μl of streptavidine/POD conjugate (# S5512, Sigma) in a 1:1000 dilution in 10% SmartBlock in PBST were applied for one hour at 20-22° C. For the detection of the recombinant FGFR2 protein 20 μl of anti-His/HRP conjugate (#71840, novagen) in a 1:10000 dilution in 10% SmartBlock in PBST were applied for one hour at 20-22° C. After 3 washing steps 20 μl of 10 μM amplex red substrate (# A12222, Invitrogen) in 50 mM Sodium hydrogen phosphate, pH 7.6, were added and the fluorescence signal was detected using a common fluorescence reader, e.g. Tecan M1000. EC50 values were evaluated by fitting the data (Sigmoida) dose-response, variable slope, bottom set to background; GraphPad Prism software).

Row | Binder | fold EC50 reduction [fold]
13 | B5 | 37
14 | B6 | 13
15 | B7 | 3.8
16 | B8 | 35
17 | B9 | 12
18 | B10 | 28

Biological target: T6, recombinant human FGFR2 (Met 1-Glu 377) …
Test: protein binding ELISA, antibody captured by anti-human IgG Fc, FGFR2-His titrated
From the text: as §2, §3

Row | Binder | EC50 [nM]
19 | B5 | 0.22
20 | B6 | 0.61
21 | B7 | 2.1
22 | B8 | 0.23
23 | B9 | 0.66
24 | B10 | 0.29

Biological target: T4, hFGFR2β-Fc (IIIb)
Test: ELISA, 1 ug/ml Fab on coated antigen; grade of signal to background (+ 2-3, ++ 3-5, +++ >5)
Method: as §1

Row | Binder | ELISA signal to background ratio [ratio]
25 | B1 | 3 to 5
26 | B2 | > 5
27 | B3 | > 5
28 | B4 | > 5

Biological target: T5, hFGFR2α-Fc (IIIb)
Test: as above
Method: as §1

Row | Binder | ELISA signal to background ratio [ratio]
29 | B1 | > 5
30 | B2 | > 5
31 | B3 | > 5
32 | B4 | > 5

Biological target: T7, mFGFR2β-Fc (IIIb) (murine, UniProt P21803-2 22-263, limits assumed, biotinylated with biotin-LC-NHS)
T7 construct: Bought, R&D Systems 708-MF
T7 sequence (P21803 other isoform, or with tags, fused parts or gaps limits assumed): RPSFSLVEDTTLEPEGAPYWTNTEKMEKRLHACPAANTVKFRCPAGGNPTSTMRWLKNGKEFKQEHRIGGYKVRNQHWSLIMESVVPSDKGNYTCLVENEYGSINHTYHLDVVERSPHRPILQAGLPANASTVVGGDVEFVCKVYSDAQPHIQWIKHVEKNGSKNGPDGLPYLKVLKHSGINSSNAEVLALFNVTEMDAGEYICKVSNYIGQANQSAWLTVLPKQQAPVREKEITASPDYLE
Test: as above
Method: as §1

Row | Binder | ELISA signal to background ratio [ratio]
33 | B1 | > 5
34 | B2 | > 5
35 | B3 | > 5
36 | B4 | > 5
